No end group written: not given here.
Biological target: T1, His-tagged SAR1A^(Δ2–17, H79G) (human, UniProt Q9NR31 1-198, Δ2–17 | H79G)
T1 construct: SAR1A, human, GTPase-defective H79G, N-terminal helix (residues 2-17) deleted; also called SAR1A^(Δ2–17, H79G)-His; His-tagged SAR1A(H79G) deleted of its N-terminal helix; source: purified, as described previously
Test: pull-down; peptide-binding assay: polyR peptide coupled through its C-terminal cysteine to thiopyridone-Sepharose 6B beads (5 nmol peptide); 2 μg purified His-tagged SAR1A preincubated with 500 μM GTPγS; HK buffer (100 mM KCl, 20 mM Hepes, pH 7.2), 1 h at 4 °C; immunoblot
Conditions: both partners purified

T1 sequence (Q9NR31 other isoform, or with tags, fused parts or gaps Δ2–17 | H79G | Δ2–17 | H79G | H79G H79G): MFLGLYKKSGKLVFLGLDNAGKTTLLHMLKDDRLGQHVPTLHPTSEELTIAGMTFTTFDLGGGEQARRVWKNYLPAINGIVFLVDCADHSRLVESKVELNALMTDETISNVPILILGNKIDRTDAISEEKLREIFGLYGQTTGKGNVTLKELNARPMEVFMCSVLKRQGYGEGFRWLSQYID

- binding result: binds
B1: synthetic polyR peptide of EGFR (RRRHIVRKRTLRRC) (peptide)
peptide: RRRHIVRKRTLRRC(Sepharose 6B)
notes: EGFR, juxtamembrane region of the cytosolic domain, amino acid number 669-681; added C-terminal cysteine residue used for coupling to the beads; also called polyR peptides; source: synthetic peptide, bought: GenScript
